Laboratory results reported in patent US20240317834A1, “COMPOSITIONS AND METHODS FOR NEUROLOGICAL DISEASES” (CODA BIOTHERAPEUTICS, INC., priority 2020, published 2024).

How the values were obtained:
rat DRG neurons = assay: Rheobase shift and evoked action potentials in rat DRG neurons (current clamp); type: cell-based
Procedure: Using whole cell manual patch clamp electrophysiology in HEK293 cells, rat DRG neurons and rat hippocampal neurons, the EC50 of the various engineered receptors disclosed herein to Ach and non-native ligands was measured using the Hill equation with peak current measurements from escalating doses of ligand. The rheobase shift was also measured in rat DRG neurons, which reflects the efficacy of the receptors. To calculate the rheobase, first, the amount of current that can produce an action potential was determined. Then the ligand was added, followed by a step wise increase in the current injected up to 700 pA.
For manual patch clamp experiments, Cells plated on coverslips were visualized at 10× and 40× on an inverted fluorescence microscope (Olympus). Recordings were made with an Axopatch 200B amplifier and Digidata 1550B (Molecular Devices) at RT using 3-6 MOhm glass patch electrodes (Sutter, BF150-86-10). Unless otherwise stated, recordings were made in extracellular solution (ECS) containing: 140 mM sodium chloride, 4 mM potassium chloride, 1 mM magnesium chloride, 2 mM calcium chloride, 10 mM HEPES, and 10 mM D-(+)-glucose (pH=7.3 with sodium hydroxide, osmolarity=305−315 mOsm). An 8-line reservoir (AutoMate Scientific) in combination with an 8-channel zero-dead-volume perfusion pencil (AutoMate Scientific) was used for perfusion. Data was acquired using pClamp software (Molecular Devices). Traces were either analyzed in Clampfit (Molecular Devices) or using custom Python code. Plotting and statistics were performed in GraphPad Prism.
DRG rheobase experiments were performed in current clamp mode using a potassium-based internal solution containing: 100 mM potassium D-gluconate, 28 mM potassium chloride, 1 mM magnesium chloride hexahydrate, 5 mM magnesium ATP, 10 mM HEPES, and 0.5 mM EGTA (pH=7.2 with potassium hydroxide, osmolarity=290-295 mOsm, calculated liquid junction potential=−13.5 mV). To measure DRG input resistance and rheobase, 500 ms current steps (−200 pA to 700 pA) were applied the membrane in the presence and absence of a compound. No holding current was applied to the membrane for cells included in the final datasets. Data were acquired at 10 kHz, with Bessel filter at 2 kHz and series resistance compensation at 100%. Rheobase was defined as the smallest depolarizing current injection required to cause an action potential to fire in the cell. In a subset of cells, the rheobase was ambiguous, since the action potential appeared to be graded in amplitude. In these cases, a […] of the trace clarified the rheobase. Input resistance was measured from the negative current injections, calculated as the difference in membrane potential at steady state divided by the current injection amplitude and then averaged across the four negative current steps for each recording. Resting membrane potential was measured from the first 100 ms of each sweep, averaged for each recording, and corrected for liquid junction potential. One-way ANOVA with multiple comparisons was used to test for significance of difference in rheobase and input resistance between baseline, drug, and wash conditions.

Lenti-X 293T cells = assay: YFP fluorescence quenching anion reporter plate reader assay of engineered receptors stimulated with acetylcholine or a non-native ligand; type: cell-based
Summary of the method: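 Lenti-X 293T cells carrying a YFP anion reporter were transiently transfected with channel DNA and assayed the next day in HEPES-buffered ECS at pH 7.2. Ligand (acetylcholine or non-native ligand) was added in NaI-substituted ECS. Percent quench was the mean of the last 10 s relative to the 15 s pre-addition baseline.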

B1: CODA1039: engineered chimeric LGIC receptor, Y115E, Y210W in SEQ ID NO: 33 (protein)
chain: MRCSPGGVWLALAASLLHVSLQGEFQRKLYKELVKNYNPLERPVANDSQPLTVYFSLSLLQIMDVDEKNQVLTTNIWLQMSWTDHYLQWNVSEYPGVKTVRFPDGQIWKPDILLENSADERFDATFHTNVLVNSSGHCQYLPPGIFKSSCPMDLKNFPMDVQTCKLKFGSWSYGGWSLDLQMQEADISGYIPNGEWDLVGIPGKRSERFWECCKEPYPDVTFTVTMRRRMGYYLIQMYIPSLLIVILSWISFWINMDAAPARVGLGITTVLTMTTQSSGSRASLPKVSYVKAIDIWMAVCLLFVFSALLEYAAVNFVSRQHKELLRFRRKRRHHKSPMLNLFQEDEAGEGRFNFSAYGMGPACLQAKDGISVKGANNSNTTNPPPAPSKSPEEMRKLFIQRAKKIDKISRIGFPMAFLIFNMFYWIIYKIVRREDVHNQ
modifications: synthetic sequence of chimeric LGIC
In the case of B1, the “Rheobase Shift; Rat DRG Neurons, +TC-5619 @ EC90” value (rat DRG neurons; +TC-5619 @ EC90) is reported as 453 ± 58 pA, the “Rheobase Shift; Rat DRG Neurons, Baseline” value (rat DRG neurons; Baseline, no ligand) is reported as 88 ± 9 pA and the “YFP fluorescence quenching using CNL001” value (Lenti-X 293T cells; 1 nM CNL001, first column) is reported as −1.12%. For the same molecule, the “YFP fluorescence quenching using CNL001” value (Lenti-X 293T cells; 1 nM CNL001, second column) was −3.941%, the “YFP fluorescence quenching using TC-5619/Bradanicline” value (Lenti-X 293T cells; 1 nM brd) was −5.55% and the “YFP fluorescence quenching using TC-5619/Bradanicline” value (Lenti-X 293T cells; 3 nM brd) was 6.78%. The “YFP fluorescence quenching using Varenicline” value (Lenti-X 293T cells; 3 nM var, first column) was −10.926, the “YFP fluorescence quenching using Varenicline” value (Lenti-X 293T cells; 3 nM var, second column) was −7.395 and the “YFP fluorescence quenching using CNL001” value (Lenti-X 293T cells; 10 nM CNL001, first column) was 6.275%. The “YFP fluorescence quenching using CNL001” value (Lenti-X 293T cells; 10 nM CNL001, second column) was 11.943%, the “YFP fluorescence quenching using TC-5619/Bradanicline” value (Lenti-X 293T cells; 10 nM brd) was −2.7% and the “YFP fluorescence quenching using TC-5619/Bradanicline” value (Lenti-X 293T cells; 30 nM brd) was 34.43%. For the same molecule, the “YFP fluorescence quenching using Facinicline” value (Lenti-X 293T cells; 30 nM fac) was −13.46, the “YFP fluorescence quenching using Varenicline” value (Lenti-X 293T cells; 30 nM var, first column) was −5.661 and the “YFP fluorescence quenching using Varenicline” value (Lenti-X 293T cells; 30 nM var, second column) was −1.244. For the same molecule, the “YFP fluorescence quenching using CNL001” value (Lenti-X 293T cells; 50 nM CNL001, first column) was 12.949%, the “YFP fluorescence quenching using CNL001” value (Lenti-X 293T cells; 50 nM CNL001, second column) was 18.635% and the “YFP fluorescence quenching using ABT-126” value (Lenti-X 293T cells; 50 nM abt) was −17.32%. For the same molecule, the “YFP fluorescence quenching using CNL001” value (Lenti-X 293T cells; 100 nM CNL001, first column) was 17.576%, the “YFP fluorescence quenching using CNL001” value (Lenti-X 293T cells; 100 nM CNL001, second column) was 18.319% and the “YFP fluorescence quenching using CNL002” value (Lenti-X 293T cells; 100 nM CNL002) was 21.85%. For the same molecule, the “YFP fluorescence quenching using ABT-126” value (Lenti-X 293T cells; 100 nM abt) was −13.93%, the “YFP fluorescence quenching using AZD-0328” value (Lenti-X 293T cells; 100 nM azd0328) was −10.45% and the “YFP fluorescence quenching using ABT-126” value (Lenti-X 293T cells; 300 nM abt) was 9.9%. For the same molecule, the “YFP fluorescence quenching using AZD-0328” value (Lenti-X 293T cells; 300 nM azd0328) was −13%, the “YFP fluorescence quenching using TC-5619/Bradanicline” value (Lenti-X 293T cells; 300 nM brd) was 70.05% and the “YFP fluorescence quenching using Facinicline” value (Lenti-X 293T cells; 300 nM fac) was 5.43. The “YFP fluorescence quenching using Varenicline” value (Lenti-X 293T cells; 300 nM var, first column) was −4.555, the “YFP fluorescence quenching using Varenicline” value (Lenti-X 293T cells; 300 nM var, second column) was 1.081 and the “YFP fluorescence quenching using ABT-126” value (Lenti-X 293T cells; 500 nM abt) was 36.97%. For the same molecule, the “YFP fluorescence quenching using Varenicline” value (Lenti-X 293T cells; 500 nM var, first column) was 9.172, the “YFP fluorescence quenching using Varenicline” value (Lenti-X 293T cells; 500 nM var, second column) was 12.561 and the “YFP fluorescence quenching using CNL001” value (Lenti-X 293T cells; 1 uM CNL001, first column) was 19.329%. The “YFP fluorescence quenching using CNL001” value (Lenti-X 293T cells; 1 uM CNL001, second column) was 20.672%, the “YFP fluorescence quenching using CNL002” value (Lenti-X 293T cells; 1 uM CNL002) was 47.37% and the “YFP fluorescence quenching using ABT-126” value (Lenti-X 293T cells; 1 uM abt) was 48.37%. The “YFP fluorescence quenching using TC-6987” value (Lenti-X 293T cells; 1 uM tc6987) was 7.26, the “YFP fluorescence quenching using Varenicline” value (Lenti-X 293T cells; 1 uM var, first column) was 7.139 and the “YFP fluorescence quenching using Varenicline” value (Lenti-X 293T cells; 1 uM var, second column) was 12.664. For the same molecule, the “YFP fluorescence quenching using ABT-126” value (Lenti-X 293T cells; 3 uM abt) was 50.5%, the “YFP fluorescence quenching using ABT-126” value (Lenti-X 293T cells; 10 uM abt) was 58.13% and the “YFP fluorescence quenching using TC-6987” value (Lenti-X 293T cells; 10 uM tc6987) was 11. For the same molecule, the “YFP fluorescence quenching using CNL002” value (Lenti-X 293T cells; 30 uM CNL002) was 59.97%, the “YFP fluorescence quenching using ABT-126” value (Lenti-X 293T cells; 30 uM abt) was 64.1% and the “YFP fluorescence quenching using AZD-0328” value (Lenti-X 293T cells; 30 uM azd0328) was 30.76%. The “YFP fluorescence quenching using Facinicline” value (Lenti-X 293T cells; 30 uM fac) was 49.06, the “YFP fluorescence quenching using ABT-126” value (Lenti-X 293T cells; 50 uM abt) was 66.67% and the “YFP fluorescence quenching using ABT-126” value (Lenti-X 293T cells; 100 uM abt) was 68.63%. The “YFP fluorescence quenching using TC-6987” value (Lenti-X 293T cells; 500 uM tc6987) was 7.97, the “percent quench of YFP fluorescence, 30 nM TC-6683” value (Lenti-X 293T cells; TC-6683 30 nM) was −1.608% and the “percent quench of YFP fluorescence, 300 nM TC-6683” value (Lenti-X 293T cells; TC-6683 300 nM) was −3.491%. The “percent quench of YFP fluorescence, 3 uM TC-6683” value (Lenti-X 293T cells; TC-6683 3 uM) was −6.153%, the “percent quench of YFP fluorescence, 30 uM TC-6683” value (Lenti-X 293T cells; TC-6683 30 uM) was −9.263% and the “percent quench of YFP fluorescence, 100 uM TC-6683” value (Lenti-X 293T cells; TC-6683 100 uM) was −9.19%. The “percent quench of YFP fluorescence, 10 uM ach” value (Lenti-X 293T cells; acetylcholine 10 uM) was −2.97%, the “percent quench of YFP fluorescence, 50 uM ach” value (Lenti-X 293T cells; acetylcholine 50 uM) was −3.94% and the “percent quench of YFP fluorescence, 100 uM ach” value (Lenti-X 293T cells; acetylcholine 100 uM) was 0.35%. For the same molecule, the “percent quench of YFP fluorescence, 300 uM ach” value (Lenti-X 293T cells; acetylcholine 300 uM) was −4.13%, the “percent quench of YFP fluorescence, 500 uM ach” value (Lenti-X 293T cells; acetylcholine 500 uM) was −5.18% and the “percent quench of YFP fluorescence, 1 mM ach” value (Lenti-X 293T cells; acetylcholine 1 mM) was 1.21%. For the same molecule, the “percent quench of YFP fluorescence, 3 mM ach” value (Lenti-X 293T cells; acetylcholine 3 mM) was 26.69%.
